Results taken from patent US20090300802A1 (WASHINGTON STATE UNIVERSITY RESEARCH FOUNDATION, published 2009).
No end group written: not given here. *: point of attachment. APDP = N-(4-[p-azidosalicylamido]butyl)-3'-(2'-pyridyldithio)propionamide, photoaffinity cross-linker coupled via disulfide to Cys, [N-]=[N+]=Nc1ccc(C(=O)NCCCCNC(=O)CCS*)c(O)c1; 125I = [125I]*

Columns and labels:
OsPEPR1 (rice) = test: cell-based or functional assay
AtPEPR1 [1] = molecular target: T1, AtPEPR1 (Arabidopsis thaliana, UniProt Q9SSL9 29-1123, glycosylated (about 180 kD, about 150 kD after PNGase F)); test: cell-based or functional assay
T1 sequence: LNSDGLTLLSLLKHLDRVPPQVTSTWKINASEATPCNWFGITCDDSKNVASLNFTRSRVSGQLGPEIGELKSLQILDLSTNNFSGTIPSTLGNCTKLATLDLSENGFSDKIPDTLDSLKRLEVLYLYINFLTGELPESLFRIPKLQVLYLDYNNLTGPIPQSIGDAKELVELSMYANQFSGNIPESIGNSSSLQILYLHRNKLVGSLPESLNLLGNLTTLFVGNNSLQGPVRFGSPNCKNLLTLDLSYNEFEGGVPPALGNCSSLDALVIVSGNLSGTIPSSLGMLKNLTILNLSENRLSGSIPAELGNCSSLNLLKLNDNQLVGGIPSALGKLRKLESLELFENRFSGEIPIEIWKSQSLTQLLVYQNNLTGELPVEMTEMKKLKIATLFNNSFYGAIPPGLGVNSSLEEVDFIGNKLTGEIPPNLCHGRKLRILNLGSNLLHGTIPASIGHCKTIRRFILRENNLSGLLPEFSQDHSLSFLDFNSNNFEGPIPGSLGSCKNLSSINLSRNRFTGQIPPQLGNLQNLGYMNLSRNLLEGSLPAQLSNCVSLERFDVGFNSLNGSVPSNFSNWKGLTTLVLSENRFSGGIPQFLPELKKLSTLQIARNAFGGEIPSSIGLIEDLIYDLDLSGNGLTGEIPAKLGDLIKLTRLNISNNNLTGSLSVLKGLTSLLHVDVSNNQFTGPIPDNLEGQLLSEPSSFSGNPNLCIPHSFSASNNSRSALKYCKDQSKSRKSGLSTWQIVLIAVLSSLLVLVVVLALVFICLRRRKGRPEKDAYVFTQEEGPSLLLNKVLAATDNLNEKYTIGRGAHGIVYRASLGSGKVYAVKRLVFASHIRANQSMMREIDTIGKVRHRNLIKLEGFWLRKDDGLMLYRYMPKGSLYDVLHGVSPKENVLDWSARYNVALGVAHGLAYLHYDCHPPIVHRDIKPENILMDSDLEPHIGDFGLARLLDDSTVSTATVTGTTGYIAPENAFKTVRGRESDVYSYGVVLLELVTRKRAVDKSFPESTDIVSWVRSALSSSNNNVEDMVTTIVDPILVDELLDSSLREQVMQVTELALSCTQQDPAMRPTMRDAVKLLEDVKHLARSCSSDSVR

AtPEPR2 [2] = molecular target: T2, AtPEPR2 (Arabidopsis thaliana, UniProt Q9FZ59 27-1088); test: sub-heading of Example 9, supported by alkalinization and photoaffinity labeling of transgenic tobacco cells
T2 construct: Coding region expressed under the CaMV 35S promoter in tobacco suspension-cultured cells; also called second AtPep1 receptor; At1g17750
T2 sequence: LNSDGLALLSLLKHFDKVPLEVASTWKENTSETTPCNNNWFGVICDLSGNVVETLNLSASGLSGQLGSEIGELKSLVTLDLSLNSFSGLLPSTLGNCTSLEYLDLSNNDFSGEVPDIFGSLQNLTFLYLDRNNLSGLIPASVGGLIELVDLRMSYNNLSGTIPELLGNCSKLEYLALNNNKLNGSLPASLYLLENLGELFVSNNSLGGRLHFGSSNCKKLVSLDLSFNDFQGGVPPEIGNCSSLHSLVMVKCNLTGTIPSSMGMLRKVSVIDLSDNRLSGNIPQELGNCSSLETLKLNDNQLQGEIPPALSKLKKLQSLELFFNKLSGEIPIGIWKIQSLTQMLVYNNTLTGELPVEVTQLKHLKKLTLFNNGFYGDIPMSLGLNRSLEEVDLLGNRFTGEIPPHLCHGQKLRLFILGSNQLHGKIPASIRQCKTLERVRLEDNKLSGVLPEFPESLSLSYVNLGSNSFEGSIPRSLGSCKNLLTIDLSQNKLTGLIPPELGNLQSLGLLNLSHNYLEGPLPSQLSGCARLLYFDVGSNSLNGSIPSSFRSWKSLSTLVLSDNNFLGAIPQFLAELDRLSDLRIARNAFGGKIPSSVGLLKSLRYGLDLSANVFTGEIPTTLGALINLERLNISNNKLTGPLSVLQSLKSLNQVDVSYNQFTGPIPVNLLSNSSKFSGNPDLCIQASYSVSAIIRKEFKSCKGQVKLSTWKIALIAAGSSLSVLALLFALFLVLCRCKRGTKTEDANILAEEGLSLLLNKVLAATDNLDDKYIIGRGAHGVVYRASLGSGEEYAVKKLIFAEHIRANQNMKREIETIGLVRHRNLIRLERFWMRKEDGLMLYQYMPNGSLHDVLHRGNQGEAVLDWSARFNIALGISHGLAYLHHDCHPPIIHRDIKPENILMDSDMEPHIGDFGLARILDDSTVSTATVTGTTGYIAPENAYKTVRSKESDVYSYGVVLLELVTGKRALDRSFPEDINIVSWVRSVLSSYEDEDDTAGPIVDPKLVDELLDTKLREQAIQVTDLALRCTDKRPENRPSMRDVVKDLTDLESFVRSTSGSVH
Method: To clarify whether AtPEPR2 binds to AtPep1, the AtPEPR2 coding region was fused to the CaMV 35S promoter and introduced into tobacco suspension-cultured cells by Agrobacterium. Tobacco cells expressing AtPEPR1 and GUS genes were also created as positive and negative controls, respectively. […] These transgenic lines were analyzed for alkalinizing activity as previously described (Pearce et al., Proc. Natl. Acad. Sci. USA 98, 12843-12847, 2001). […] The level of response to AtPep1 for the AtPEPR2-expressing cells was similar to that of AtPEPR1-expressing cells and to Arabidopsis cells (Yamaguchi et al., Proc. Natl. Acad. Sci. USA 103: 10104-10109, 2006, Huffaker et al., Proc. Natl. Acad. Sci. USA 103: 10098-10103, 2006), with a maximal change of 1-1.2 pH units and a half-maximal peptide activity of 0.25 nM.
(§1) For final confirmation, a photoaffinity-labeling experiment was performed using the transgenic tobacco cells. […] After separation of extracted proteins by SDS-PAGE, the labeled proteins were detected on X-ray film. […] Since no specific labeling was detected in wild type tobacco and GUS expressing cells, the proteins labeled specifically by ¹²⁵I₁-azido-Cys-AtPep1 in AtPEPR1 and AtPEPR2 expressing cells were products from the AtPEPR1 and AtPEPR2 genes.

AtPEPR1 [3] = molecular target: T1, AtPEPR1; test: saturation binding of radiolabeled peptide to Arabidopsis suspension cultured cells, Scatchard analysis
From the text: An analog of AtPep1 was synthesized with a Tyr residue attached to its N-terminus and radiolabeled with ¹²⁵I to quantify binding. The Tyr analog and mono- and di-iodo-Tyr-AtPep1 analogs were separated by HPLC, and the concentration-dependent activities of AtPep1 and these analogs where tested in the alkalinization assay. […] The mono-iodinated Tyr-AtPep1 comprised about 95% of the iodinated proteins and was employed for binding studies.

AtPEPR1 [4] = molecular target: T1, AtPEPR1; test: photoaffinity labeling (0.25 nM) of transgenic tobacco cells expressing AtPEPR1, SDS-PAGE and X-ray film
Method: (§2) This wash was repeated twice. The cells were resuspended in 1 mL MS medium and irradiated with UV-B for 10 min on ice to photoactivate the azido group to effect the crosslinking. The cells were washed with 1 mL MS medium, centrifuged as above, and resuspended in 400 μL of 5% SDS. The cells were disrupted by boiling for 30 min, and the insoluble debris was removed by centrifugation at 10,000×g. […] After centrifugation at 10,000×g, the pellet was recovered and dissolved in 100 μL of Laemmli sample buffer containing 5% SDS, boiled for 10 min, and separated using 8% SDS-PAGE. The gels were dried and exposed to X-ray film for 50 hr to visualize labeled proteins. In competition assays, unlabeled AtPep1 and suramin were added to the cells and incubated for 10 min before adding ¹²⁵I-azido-Cys-AtPep1. The same procedures described above were employed to detect labeled proteins.
as §1

AtPEPR2 [5] = molecular target: T2, AtPEPR2; test: photoaffinity labeling (0.25 nM) of transgenic tobacco cells expressing AtPEPR2, SDS-PAGE and X-ray film
Method: as §2, §1

OsPep3a (peptide)
half-maximal activity, alkalinization of tobacco cells expressing OsPEPR1 (OsPEPR1 (rice)): 0.25 nM | medium pH increase, tobacco cells expressing OsPEPR1 (OsPEPR1 (rice)): 1.2 pH unit

ZmPep4a (peptide)
half-maximal activity, alkalinization of tobacco cells expressing OsPEPR1 (OsPEPR1 (rice)): 0.25 nM | medium pH increase, tobacco cells expressing OsPEPR1 (OsPEPR1 (rice)): 1.2 pH unit

GLPGKKNVLKKSRESSGKPGGTN [AtPep5]
change in medium pH of transgenic tobacco cells expressing AtPEPR1 at 2.5 nM peptide (AtPEPR1 [1]): ≤ 0.6 pH units | half-maximal activity, alkalinization of tobacco cells expressing AtPEPR1 (AtPEPR1 [1]): 0.25 nM | maximal change of medium pH, tobacco cells expressing AtPEPR1 (AtPEPR1 [1]): 1.2 pH units

SLNVMRKGIRKQPVSSGKRGGVN [AtPep2]
change in medium pH of transgenic tobacco cells expressing AtPEPR1 at 2.5 nM peptide (AtPEPR1 [1]): ≤ 0.6 pH units | half-maximal activity, alkalinization of tobacco cells expressing AtPEPR1 (AtPEPR1 [1]): 0.25 nM | maximal change of medium pH, tobacco cells expressing AtPEPR1 (AtPEPR1 [1]): 1.2 pH units

B1: AtPep1 (peptide)
peptide: ATKVKAKQRGKEKVSSGRPGQHN
notes: 23 amino acid peptide, chemically synthesized, not post-translationally modified; also called Arabidopsis Peptide 1; native AtPep1
half-maximal activity, alkalinization of tobacco cells expressing AtPEPR1 (AtPEPR1 [1]): 0.25 nM | maximal change of medium pH, tobacco cells expressing AtPEPR1 (AtPEPR1 [1]): 1.2 pH units | binding result (AtPEPR2 [2]): binds

EIKARGKNKTKPTPSSGKGGKHN [AtPep4]
half-maximal activity, alkalinization of tobacco cells expressing AtPEPR1 (AtPEPR1 [1]): 2.5 nM

VSGNVAARKGKQQTSSGKGGGTN [AtPep7]
half-maximal activity, alkalinization of tobacco cells expressing AtPEPR1 (AtPEPR1 [1]): 2.5 nM

ITAVLRRRPRPPPYSSGRPGQNN [AtPep6]
change in medium pH of transgenic tobacco cells expressing AtPEPR1 at 2.5 nM peptide (AtPEPR1 [1]): ≤ 0.6 pH units | half-maximal activity, alkalinization of tobacco cells expressing AtPEPR1 (AtPEPR1 [1]): 0.25 nM | maximal change of medium pH, tobacco cells expressing AtPEPR1 (AtPEPR1 [1]): 1.2 pH units

Y(125I)ATKVKAKQRGKEKVSSGRPGQHN (also called mono-iodinated Tyr-AtPep1) [125I1-Tyr-AtPep1]
Kd (AtPEPR1 [3]): 0.25 nM

C(APDP)ATKVKAKQRGKEKVSSGRPGQHN (also: mono-iodinated with 125I, site not given here, also called 125I1-azido-Cys-AtPep1) [125I-azido-Cys-AtPep1]
binding result (AtPEPR1 [4]): binds | binding result (AtPEPR2 [5]): binds
